Assay results taken from patent US20120093813A1 (Pfizer, published 2012).
Several values for one entry are separate records, joined by “and”; a condition that tells them apart may be missing. Identical values can stand only once.

Assays:
[1] = target: Notch1 of HPB-ALL cells (human, UniProt P46531 19-2555); assay: cell-based or functional assay
[2] = target: T1, human Notch1-NRRHD (human, UniProt P46531 19-43; P46531 1446-1733); assay: ELISA on coated conditioned medium
T1 construct: domain: Notch1-NRRHD (nucleotide 1-129);domain: Notch1-NRRHD (nucleotide 4338-5202); If counted from the start codon they are about residues 1-43 and 1447-1734 (my conversion); Used as conditioned medium; also called huN1-NRRHD; human Notch1 antigen
T1 sequence (looked up): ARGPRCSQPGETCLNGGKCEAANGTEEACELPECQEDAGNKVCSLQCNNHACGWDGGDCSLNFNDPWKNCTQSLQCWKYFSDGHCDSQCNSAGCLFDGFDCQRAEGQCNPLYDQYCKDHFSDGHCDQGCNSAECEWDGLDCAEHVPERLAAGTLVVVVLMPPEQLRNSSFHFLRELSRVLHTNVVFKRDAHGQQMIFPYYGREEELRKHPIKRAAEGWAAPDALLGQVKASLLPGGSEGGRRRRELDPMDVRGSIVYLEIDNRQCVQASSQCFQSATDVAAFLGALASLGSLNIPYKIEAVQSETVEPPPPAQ
Description: (§1) We further made domain-swap chimeric Notch1-NRRHD expression constructs using the human Notch1-NRRHD sequence (Nucleotide 1-129 and 4338-5202, NCBI Accession # NM_{—}017617) as frame work, systematically exchanged the human Lin-A, Lin-B or HD-C domains with the corresponding mouse domains.

[3] = target: T2, murine Notch1-NRRHD (mouse, UniProt Q01705 19-33; Q01705 1443-1723); assay: ELISA on coated conditioned medium
T2 construct: domain: Notch1-NRRHD (nucleotide 1-99);domain: Notch1-NRRHD (nucleotide 4327 to 5169); Nucleotide limits only; if counted from the start codon they are residues 1-33 and 1443-1723 (my conversion); Used as conditioned medium; also called MuN1-NRRHD; mouse Notch1
T2 sequence (looked up): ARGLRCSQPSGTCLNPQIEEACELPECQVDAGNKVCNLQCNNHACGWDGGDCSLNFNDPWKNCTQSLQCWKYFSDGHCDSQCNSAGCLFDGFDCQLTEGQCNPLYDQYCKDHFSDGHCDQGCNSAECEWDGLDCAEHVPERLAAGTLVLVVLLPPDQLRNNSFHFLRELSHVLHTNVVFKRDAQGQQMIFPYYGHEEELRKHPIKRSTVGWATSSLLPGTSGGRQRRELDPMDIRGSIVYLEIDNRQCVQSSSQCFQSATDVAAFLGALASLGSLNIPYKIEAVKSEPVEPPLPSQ
Description: as §1

[4] = target: T3, Notch1 chimeric antigen, Lin-B domain swapped with murine sequence; assay: ELISA on coated conditioned medium
T3 construct: also called Mu/Lin-B
Description: as §1

[5] = target: T4, Notch1 chimeric antigen, HD-C domain swapped with murine sequence; assay: ELISA on coated conditioned medium
T4 construct: also called Mu/HD-C
Description: as §1

[6] = target: T5, N1-NRR-TM(-)/Fc fusion protein (human); assay: SPR, Biacore 3000, N1-NRR-TM(-)Fc captured on Protein A, mAb injected
T5 construct: Secreted from 293-F cells, purified on protein G; also called Notch1-NRR-TM(-)/Fc; N1-NRR-TM(-)Fc protein; not shown: Human Fc of the Fc-fusion vector, fused C-terminal of the immunogen, plus any junction residues
T5 chain: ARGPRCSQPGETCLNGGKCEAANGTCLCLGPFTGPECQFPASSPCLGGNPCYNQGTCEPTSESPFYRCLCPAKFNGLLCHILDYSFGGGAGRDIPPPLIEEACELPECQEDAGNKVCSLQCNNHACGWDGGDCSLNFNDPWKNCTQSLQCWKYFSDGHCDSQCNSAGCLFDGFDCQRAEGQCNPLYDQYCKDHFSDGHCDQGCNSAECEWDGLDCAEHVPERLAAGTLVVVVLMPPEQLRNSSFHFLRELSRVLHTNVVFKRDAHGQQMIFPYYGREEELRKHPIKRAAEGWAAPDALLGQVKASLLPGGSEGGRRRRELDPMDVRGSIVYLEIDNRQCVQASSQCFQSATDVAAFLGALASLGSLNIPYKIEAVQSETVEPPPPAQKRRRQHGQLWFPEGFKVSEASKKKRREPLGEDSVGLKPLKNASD
Method: Protein A was amine-coupled at saturating levels onto the chip using a standard N-hydroxysuccinimide/ethyldimethylaminopropyl carbodiimide (NHS/EDC) chemistry. N1-NRR-TM(−)Fc protein (described in Example 1) was captured to the chip surface by Protein A in all three flow cells at 40, 13, 4 ug/ml. […] Dissociation was monitored for 20 minutes. The chip was regenerated after the last injection of each titration with two 30 second pulses of 100 mM phosphoric acid. Buffer cycles provided blanks for double-referencing the data, which were then fit globally to a simple binding model using Biaevaluation software v.4.1. Affinities were deduced from the quotient of the kinetic rate constants (KD=koff/kₒₙ).

[7] = target: T6, Notch1 chimeric antigen, Lin-A domain swapped with corresponding Notch2 domain; assay: ELISA, conditioned medium of chimeric antigen coated, 300 ng mAb per well
T6 construct: Used as conditioned medium of transfected 293-F cells
Method: (§2) For understanding the mechanism of action by Notch1-antagonist mAb, binding epitopes of Notch1-antagonist mAbs were analyzed by domain swap and ELISA binding assay. The Notch1-NRR-TM(−)/Fc protein was divided into six domains: EGF (including EGF35-36), Lin12-A (or Lin-A), Lin-B, Lin-C, heterodimerization domain-N (or HD-N) and HD-C (FIG. 5). Each of the domains were swapped for that corresponding to human Notch2 by PCR synthesis in a series of chimeric Notch1-NRR-TM(−)/Fc expression constructs. The domain-swap plasmids were transfected in Freestyle™ 293-F cells (Invitrogen, Inc., Calsbad, Calif.) using Freestyle™ Max Reagent (Invitrogen) as described above in Example 1. After being cultured for three days, the conditioned media was subjected to Western blot analysis and an ELISA binding assay by Notch1 mAbs.
(§3) In ELISA assay, the 100 microliters of the conditioned medium from the above antigen plasmids-transfected cell culture were loaded in each well of the 96-well plate, and plates were incubated at room temperature for 4 hours or 4° C. for overnight. The condition medium was then removed from the coated plates. For primary antibody binding, 300 ng of each mAb (Table 3) in 100 microliters of PBS was added to the coated well. The rest of the ELISA procedure is the same as described in Example 2.

[8] = target: T7, Notch1 chimeric antigen, Lin-C domain swapped with corresponding Notch2 domain; assay: as above
T7 construct: Used as conditioned medium of transfected 293-F cells
Method: as §2, §3

[9] = target: T8, Notch1 chimeric antigen, HD-N domain swapped with corresponding Notch2 domain; assay: as above
T8 construct: Used as conditioned medium of transfected 293-F cells
Method: as §2, §3

[10] = target: T9, Notch1 chimeric antigen, HD-C domain swapped with corresponding Notch2 domain; assay: as above
T9 construct: Used as conditioned medium of transfected 293-F cells
Method: as §2, §3

[11] = target: T10, Notch1 chimeric antigen, EGF domain swapped with corresponding Notch2 domain; assay: as above
T10 construct: Used as conditioned medium of transfected 293-F cells
Method: as §2, §3

[12] = target: T2, murine Notch1-NRRHD; assay: heading printed under Table 3; it introduces the following ELISA experiment with human and murine Notch1-NRRHD
Description: as §1

B1: mouse monoclonal antibody N248A (antibody, IgG1, V domains shown)
VH: QVQLQQSGAELMKPGASVKISCKATGYTFSNYWMEWVKQRPGHGLEWIGEILPGRGRTNYNENFKGKATFTADTSSNTVYMQLNSLTSEDSAVYYCARFHSSAYYYTMDYWGQRTSVTVSS
VL: QAVVTQESALTTSPGETVTLTCRSSTGAVTTSNYANWVQEKPDHLFTGLIGGTNNRAPGIPARFSGSLIGDKAALTITGAQTEDEAIYFCALWYSNHWVFGGGTKLTVL
notes: treated as one antibody; also called mAb N248A; N248A1
IC50 of cell growth inhibition, HPB-ALL cells, 7 days [1]: ~0.78 µg/ml and ~5.2 nM
ELISA reading [2]: 3.13
ELISA reading [3]: 0.17
ELISA reading [4]: 3.37
ELISA reading [5]: 3.17
Kd [6]: < 0.33 nM
koff [6]: < 0.00017 s⁻¹
ELISA reading [7]: 0.05
ELISA reading [8]: 3.48
ELISA reading [9]: 3.52
ELISA reading [10]: 0.04
ELISA reading [11]: 3.51
binding result [12]: no binding
